Where a chain is given by its changes, count along the chain named.

Sequences and labels used below:
B1: 1′DelE2 PR4 (designed binder)
chain: EVVAATPTSLLISWRHPHFPTRYYRITYGETGGNSPVQEFTVPLQPPTATISGLKPGVDYTITVYAVTVGQNDHELLTPISINYRT
B2: 1′DelF3 PR4 (designed binder)
chain: B1 chain with V69M, G70A, E75K, L77F
B3: 2′Del C11 PR4 (designed binder)
chain: B1 chain with V69A, Q71L, D73E, T78I
B4: 2′Del D3 PR4 (designed binder)
chain: B1 chain with V69S, Q71L, H74R, E75V, L77F, T78I
B5: 2′DelH4 PR4 (designed binder)
chain: B1 chain with Q71P, D73E, H74R, E75M, L77M
B6: 2′Del C1 PR4 (designed binder)
chain: B1 chain with V69A, Q71L, N72D, D73E, T78I
B7: 2′Del A11 PR4 (designed binder)
chain: B1 chain with V69E, G70D, Q71I, N72R, D73V, H74L, E75W, L77N, P79T
B8: 1′DelD2 PR4 (designed binder)
chain: B1 chain with G70A, Q71K
B9: 2′DelG5 PR4 (designed binder)
chain: B1 chain with D73N
B10: 2′DelC3 PR4 (designed binder)
chain: B1 chain with V69W, G70A, D73G, H74R
B11: 2′Del D1 PR4 (designed binder)
chain: B1 chain with V69L, G70E, H74R, E75V
B12: 2′Del F8 PR4 (designed binder)
chain: B1 chain with V69A, Q71P, N72G, D73A
B13: 2′Del D5 PR4 (designed binder)
chain: B1 chain with G70A, Q71W, E75M, L77M
B14: 2′Del B5 PR4 (designed binder)
chain: B1 chain with V69A, Q71R, N72H, L77I, T78I
B15: 2′Del H5 PR4 (designed binder)
chain: B1 chain with V69L, Q71K, N72D, D73V, H74R
B16: 1′DelH5 PR4 (designed binder)
chain: B1 chain with G70A, H74R, L77F
B17: 2′Del F5 PR4 (designed binder)
chain: B1 chain with V69L, G70V, Q71H, H74R
B18: 2′Del G11 PR4 (designed binder)
chain: B1 chain with V69G, N72M, D73N, H74R, E75V, L77M
B19: 1′DelD1 PR4 (designed binder)
chain: B1 chain with G70T
B20: 2′Del F1 PR4 (designed binder)
chain: B1 chain with V69R, G70D, N72Y, D73E
B21: 2′Del C5 PR4 (designed binder)
chain: B1 chain with V69P, Q71H, L77M, T78V
B22: 2′DelH9 PR4 (designed binder)
chain: B1 chain with Q71W, N72S, D73G, L77F, T78V
B23: 1′Del G10 PR4 (designed binder)
chain: B1 chain with V69M, G70A, D73G, E75K, L77M
B24: 2′Del C6 PR4 (designed binder)
chain: B1 chain with V69M, Q71F, N72M, D73A, L77M, T78V
B25: 2′DelA5 PR4 (designed binder)
chain: B1 chain with V69W, G70N, D73G, H74Q, L77F
B26: 2′Del G9 PR4 (designed binder)
chain: B1 chain with G70E, D73G, H74R, L77I, T78I
B27: 2′Del F11 PR4 (designed binder)
chain: B1 chain with V69M, H74K, L77I
B28: 2′Del B3 PR4 (designed binder)
chain: B1 chain with V69D, G70A, Q71P, D73G, H74R, L77M, T78V
B29: 2′DelE4 PR4 (designed binder)
chain: B1 chain with G70H, Q71W, D73G, L77M
B30: 1′DelD5 PR4 (designed binder)
chain: B1 chain with D73H, L77F
B31: 2′Del B2 PR4 (designed binder)
chain: B1 chain with V69T, Q71W, D73G, H74N, L77F
B32: 2′DelC7 PR4 (designed binder)
chain: B1 chain with V69W, G70D, D73G, E75V
B33: 2′Del A2 PR4 (designed binder)
chain: B1 chain with V69G, Q71R, D73G, E75T
B34: 1′DelE7 PR4 (designed binder)
chain: B1 chain with G70A, D73G, L77F
B35: 1′DelA1 PR4 (designed binder)
chain: B1 chain with G70A
B36: 2′Del D10 PR4 (designed binder)
chain: B1 chain with V69L, G70A, Q71D, D73A, H74R
B37: 2′Del E5 PR4 (designed binder)
chain: B1 chain with V69E, Q71L, L77I, T78I
B38: 2′Del E6 PR4 (designed binder)
chain: B1 chain with V69M, Q71K, D73G
B39: 2′DelB7 PR4 (designed binder)
chain: B1 chain with Q71Y, D73N, H74R
B40: 2′Del H12 PR4 (designed binder)
chain: B1 chain with V69A, Q71G, D73G
B41: 2′Del H6 PR4 (designed binder)
chain: B1 chain with V69T, Q71H, N72H, L77I, T78I
B42: 2′Del F7 PR4 (designed binder)
chain: B1 chain with V69L, Q71L, N72R, H74R, L77F, T78V
B43: 1′DelH10 PR4 (designed binder)
chain: B1 chain with V69F, G70A
B44: 2′Del B4 PR4 (designed binder)
chain: B1 chain with V69S, Q71H, D73G, L76V, L77M
B45: 1′DelE6 PR4 (designed binder)
chain: B1 chain with V69L, G70A, H74R
B46: 2′Del E3 PR4 (designed binder)
chain: B1 chain with V69L, Q71P, N72Y, D73E
B47: 2′Del F6 PR4 (designed binder)
chain: B1 chain with V69L, Q71W, L77Y, T78I
B48: 2′Del C8 PR4 (designed binder)
chain: B1 chain with V69T, G70A, Q71H, D73G
B49: 1′DelH12 PR4 (designed binder)
chain: B1 chain with G70A, D73E, H74R, L77F
B50: 1′DelA2 PR4 (designed binder)
chain: B1 chain with G70A, D73G, E75Q, L77F

For this test, the target named is T1, human vascular endothelial growth factor receptor-2 Fc chimera (KDR-Fc) (human, UniProt P35968 20-764).
T1 construct: range 1-764; also called human VEGFR-2; not shown: human IgG1 Fc
T1 sequence (P35968 20-764 limits assumed, change not shown, form in doubt): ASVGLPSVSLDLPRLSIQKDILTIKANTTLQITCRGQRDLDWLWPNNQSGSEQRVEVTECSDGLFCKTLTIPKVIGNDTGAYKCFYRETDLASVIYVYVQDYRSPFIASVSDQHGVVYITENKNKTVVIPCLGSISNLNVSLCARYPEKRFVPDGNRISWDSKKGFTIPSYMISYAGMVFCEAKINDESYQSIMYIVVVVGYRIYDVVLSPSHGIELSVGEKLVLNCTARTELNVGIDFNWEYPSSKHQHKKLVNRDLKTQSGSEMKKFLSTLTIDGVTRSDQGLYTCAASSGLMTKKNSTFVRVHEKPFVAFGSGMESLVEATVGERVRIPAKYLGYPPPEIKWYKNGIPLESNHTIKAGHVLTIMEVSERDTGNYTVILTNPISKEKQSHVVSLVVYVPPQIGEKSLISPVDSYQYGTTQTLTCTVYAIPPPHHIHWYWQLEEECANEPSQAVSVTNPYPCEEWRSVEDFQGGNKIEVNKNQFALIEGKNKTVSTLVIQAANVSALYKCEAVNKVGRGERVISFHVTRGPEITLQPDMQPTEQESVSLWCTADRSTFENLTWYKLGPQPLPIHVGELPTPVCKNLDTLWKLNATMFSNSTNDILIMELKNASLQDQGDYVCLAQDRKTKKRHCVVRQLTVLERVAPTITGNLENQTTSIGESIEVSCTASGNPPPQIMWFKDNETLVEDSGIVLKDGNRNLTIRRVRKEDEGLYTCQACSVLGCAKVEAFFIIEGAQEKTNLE
Briefly: radioactive equilibrium binding, 1 nM KDR-Fc, % of input. The procedure: To prepare ³⁵S-labeled binding proteins for analysis, mRNA was prepared as described above for RNA-protein fusion production but the linker ligation step was omitted. The mRNA was expressed using rabbit reticulocyte lysate translation kit (Ambion) in the presence of ³⁵S-labeled Met at 30° C. for 1 hour. Expressed protein was purified on M2-agarose Flag beads (Sigma) as described above. This procedure produced the encoded protein without the nucleic acid tail. In a direct binding assay, VEGF-R2-Fc fusions in concentrations ranging from 0 to 200 nM were added to a constant concentration of the purified protein (0.2 or 0.5 nM) and incubated at 30° C. for 1 hour in buffer B. The receptor-binder complexes were captured using Protein A magnetic beads for another 10 minutes at room temperature using a Kingfisher™ The beads were washed with six reaction volumes of buffer B. The protein was eluted from the beads with 100 μL of 0.1 M KOH. 50 μL of the reaction mixture and elution were dried onto a LumaPlate-96 (Packard) and the amount of ³⁵S on the plate was measured using a TopCount NXT instrument (Packard). The amount of fibronectin-based scaffold protein bound to the target was estimated as a percent of radioactivity eluted from Protein A magnetic beads compare to radioactivity in the reaction mixture. Nonspecific binding of fibronectin-based scaffold proteins to the beads was determined by measuring binding in the absence of KDR-Fc and represented less than 1-2% of the input. Specific binding was obtained through subtraction of nonspecific binding from total binding. Data was analyzed using the GraphPad Prizm software (GraphPad Software, Inc, San Diego, Calif.), fitted using a one site, non-linear binding equation.
For the molecule B1, the “Binding to 1 nM KDR, %” value is 16%.

B2: the “Binding to 1 nM KDR, %” value is 16%.

As to B3, the “Binding to 1 nM KDR, %” value was determined as 34%.

For the molecule B4, the “Binding to 1 nM KDR, %” value was 38%.

In the case of B5, the “Binding to 1 nM KDR, %” value worked out at 30%.

B6: the “Binding to 1 nM KDR, %” value stood at 32%.

On to B7, for which the “Binding to 1 nM KDR, %” value worked out at 16%.

On to B8, for which the “Binding to 1 nM KDR, %” value turned out to be 17%.

Regarding B9, the “Binding to 1 nM KDR, %” value worked out at 19%.

Take B10: the “Binding to 1 nM KDR, %” value turned out to be 29%.

For the molecule B11, the “Binding to 1 nM KDR, %” value was 28%.

Take B12: the “Binding to 1 nM KDR, %” value is 42%.

For the molecule B13, the “Binding to 1 nM KDR, %” value amounted to 18%.

With B14, the “Binding to 1 nM KDR, %” value was 33%.

On to B15, for which the “Binding to 1 nM KDR, %” value was found to be 34%.

On to B16, for which the “Binding to 1 nM KDR, %” value was 17%.

Regarding B17, the “Binding to 1 nM KDR, %” value was found to be 22%.

In the case of B18, the “Binding to 1 nM KDR, %” value worked out at 22%.

Regarding B19, the “Binding to 1 nM KDR, %” value came to 16%.

Consider B20, for which the “Binding to 1 nM KDR, %” value amounted to 20%.

With B21, the “Binding to 1 nM KDR, %” value was determined as 26%.

In the case of B22, the “Binding to 1 nM KDR, %” value stood at 20%.

For the molecule B23, the “Binding to 1 nM KDR, %” value was 36%.

As to B24, the “Binding to 1 nM KDR, %” value turned out to be 34%.

For the molecule B25, the “Binding to 1 nM KDR, %” value was 20%.

B26: the “Binding to 1 nM KDR, %” value amounted to 33%.

B27: the “Binding to 1 nM KDR, %” value is 27%.

Regarding B28, the “Binding to 1 nM KDR, %” value was 17%.

B29: the “Binding to 1 nM KDR, %” value worked out at 34%.

Consider B30, for which the “Binding to 1 nM KDR, %” value amounted to 17%.

As for B31, the “Binding to 1 nM KDR, %” value is 29%.

Consider B32, for which the “Binding to 1 nM KDR, %” value worked out at 19%.

In the case of B33, the “Binding to 1 nM KDR, %” value was found to be 17%.

Consider B34, for which the “Binding to 1 nM KDR, %” value amounted to 22%.

In the case of B35, the “Binding to 1 nM KDR, %” value was found to be 14%.

Turning to B36, the “Binding to 1 nM KDR, %” value turned out to be 34%.

For the molecule B37, the “Binding to 1 nM KDR, %” value amounted to 19%.

Regarding B38, the “Binding to 1 nM KDR, %” value was 43%.

For the molecule B39, the “Binding to 1 nM KDR, %” value was determined as 32%.

B40: the “Binding to 1 nM KDR, %” value came out at 24%.

On to B41, for which the “Binding to 1 nM KDR, %” value was 28%.

Regarding B42, the “Binding to 1 nM KDR, %” value was found to be 38%.

For the molecule B43, the “Binding to 1 nM KDR, %” value came to 17%.

In the case of B44, the “Binding to 1 nM KDR, %” value was determined as 31%.

With B45, the “Binding to 1 nM KDR, %” value was determined as 24%.

For the molecule B46, the “Binding to 1 nM KDR, %” value was 33%.

For the molecule B47, the “Binding to 1 nM KDR, %” value was 22%.

On to B48, for which the “Binding to 1 nM KDR, %” value came out at 15%.

B49: the “Binding to 1 nM KDR, %” value was 18%.

As for B50, the “Binding to 1 nM KDR, %” value was found to be 23%.

(Values after US20120283184A1 (published 2012).)
